Experimental data published in paper PMC9302720.

Molecular target: SARS-CoV-2 protein S ectodomain, Wuhan-Hu-1 variant (SARS-CoV-2 | not stated) (UniProt P0DTC2)
Assay: BLI

What does the source list for “N-terminal peptidase domain of human ACE2 (domain or fragment)”?
Kd: 79.3 nM; koff: 0.0162 s⁻¹; kon: 210000 M⁻¹ s⁻¹
